# Results published in doi:10.64898/2025.12.07.692841.
# Like-named read-outs stand apart in the source and are kept apart here.
# Columns and labels:
# Assay in all cases: crystal structure
# [1] = molecular target: nitrogenase reductase NifH (dimer) from Methanocaldococcus infernus (Methanocaldococcus infernus strain DSM 11812)
# [2] = molecular target: PII-nitrogen regulatory protein NifI2 from Methanocaldococcus infernus (Methanocaldococcus infernus strain DSM 11812)
# [3] = molecular target: PII-nitrogen regulatory protein NifI2 from Methanocaldococcus infernus (Methanocaldococcus infernus strain DSM 11812); remark: listed apart in the source
stoichiometry N [1],stoichiometry N [2],stoichiometry N [3],Substance
2,–,–,nitrogenase reductase NifH (dimer) from Methanocaldococcus infernus (enzyme)
–,2,2,PII-nitrogen regulatory protein NifI2 from Methanocaldococcus infernus (natural protein)
